Measurements taken from patent US12264201B2, “Bispecific antibody targeting IL-1R1 and NLPR3” (University of Ulster, priority 2018, dated 2025).

Experiments:
apoE−/− mice [1] = test: In vivo LPS challenge, serum IL-1β and TNF-α by ELISA; settings: LPS 50 μg/kg i.v., FIG. 37
Method: Female apoE−/− mice were fed a Western-type diet containing 0.25% cholesterol and 15% cacao butter (SDS, Sussex, UK) starting 1 week prior to treatment and throughout the experiment. Diet and water were provided ad libitum. After 1 week of diet feeding, mice were injected intraperitoneally with PBS or InflaMab (100 μg or 200 μg) administrated on day 10 and day 14. After 2 weeks of diet and a 1-week treatment mice were challenged intravenously with LPS (50 μg/kg, Salmonella minnesota R595, List Biological Laboratories Inc.) and blood was collected after 0.5, 1, 2 and 4 hours. After 4 hours mice were sacrificed and serum levels of IL-1β and TNF-α were measured by ELISA.
IL-1beta, but not TNFalpha, is inhibited in vivo via LPS challenge—see FIG. 37. Female apoE−/− mice, after 1 week on WTD, were injected intraperitoneally with PBS or InflaMab (100 μg or 200 μg) administrated on day 10 and day 14. After 2 weeks of diet and a 1-week treatment mice were challenged intravenously with LPS (50 μg/kg) and (a) IL-1β and (b) TNF-α were measured by ELISA.

[2] = test system: Bone Marrow Derived Macrophages (BMDMs); test: Inflammasome activation assay in bone marrow derived macrophages (cytokine ELISA); type: cell-based, C57BL/6 mice; settings: murine BMDMs, FIG. 36
Method: Bone marrow cells were isolated from the tibias and femurs of C57BL/6 mice. To obtain bone marrow-derived dendritic cells (BMDCs), cells were cultured for 7 days at 37° C. and 5% CO2 in Iscove's modified Dulbecco's medium (IMDM) supplemented with 8% fetal calf serum (FCS), 1% penicillin/streptomycin (GE Healthcare Life Sciences, Marlborough, MA, USA), 1% glutamax (Thermo Fisher Scientific, Waltham, MA, USA) and 20 μM β-mercaptoethanol (Sigma-Aldrich, St. Louis, MO, USA) in the presence of 20 ng/mL gm-CSF (Preprotech, Rocky Hill, NJ, USA). To obtain bone marrow-derived macrophages (BMDMs), cells were cultured for 7 days in Roswell Park Memorial Institute medium (RPMI) supplemented with 10% FCS, 100 U/mL penicillin/streptomycin, 0.1 mM nonessential amino acids, 1% pyruvate and 2 mM L-glutamine (Thermo Fisher Scientific) in the presence of 20 ng/mL m-CSF (eBioscience)
For in vitro stimulation, 0.1×10^6 cells per well were added to 96-well flat-bottom plates (Greiner Bio-One, Kremsmunster, Austria). Cells were first primed with LPS (50 ng/mL) for 2 hours, after which cholesterol crystals (2 mg/mL) were added in the presence or absence of MCC950 (1 μM, Adipogen, San Diego, US) for an additional 4 hours. […]
InflaMab inhibits IL-1beta secretion in BMDMs—see FIG. 36. […] IL-1β release was measured in the supernatant by ELISA.

apoE−/− mice [3] = test: Atherosclerosis: collar-induced carotid artery plaque formation, morphometry; type: in vivo
Description: Female apoE−/− mice were fed a Western-type diet, containing 0.25% cholesterol and 15% cacao butter (SDS, Sussex, UK) starting two weeks prior to surgery and throughout the experiment. After 2 weeks of diet feeding, carotid artery plaque formation was induced by perivascular collar placement in these mice as described previously (von der Thusen et al, Circulation. 2001; 103(8):1164-1170). […] Through the experiment, mice were weighed weekly and blood samples were obtained via the tail vein. Total cholesterol levels were determined in the serum using enzymatic colorimetric procedures (Roche/Hitachi, Mannheim, Germany). Precipath (Roche/Hitachi) was used as an internal standard. Fasting glucose levels were determined in mice at 2 weeks after starting the treatment with InflaMab and were measured with an Accu-Check glucometer (Roche Diagnostics, Almere, The Netherlands). For lipid profiling, serum samples pooled from 3 mice were used (n=3 samples per group) which were diluted 6 times, and fractionation of plasma lipoproteins was performed using an AKTA-FPLC. In each fraction, the total cholesterol levels were determined by incubation with cholesterol CHOD-PAP Reagent (Roche, Woerden, The Netherlands). Absorbance was measured at 492 nm.
After 4 weeks of treatment, the mice were anesthetized and in situ perfused, after which the carotid arteries were collected, frozen in OCT compound (TissueTek; Sakura Finetek, The Netherlands) and stored at −80° C. Transverse 10 μm cryosections were prepared on a Leica CM 3050S Cryostat (Leica Instruments) in a proximal direction for (immuno)histochemical analysis.
Cryosections were routinely stained with hematoxylin (Sigma-Aldrich, Zwijndrecht, The Netherlands) and eosin (Merck Diagnostica, Darmstadt, Germany). Morphometric analysis (Leica Qwin image analysis software) was performed on hematoxylin-eosin stained sections of the carotid arteries. For each carotid, lesion size was quantified every 100 μm, from the first appearance of the lesion proximal to the collar up to complete disappearance of the lesion from the artery. The number of sections analyzed ranged from 5 to 15 sections per mouse, from which average plaque size and plaque volume were calculated. The section with the largest plaque size was annotated as the plaque with maximum stenosis. For the quantification of lesion content in the carotid artery, four consecutive cross-sections containing the largest lesions were used. To determine lipid content, sections were stained with Oil-Red-O (Sigma-Aldrich). Macrophage content of the lesions was assessed using a rat monoclonal MOMA-2 antibody (Serotec, Kidlington, Oxford, UK). Collagen was visualized using a Sirius Red staining (Sigma-Aldrich). Mast cells and neutrophils were visualized by staining of cryosections with naphthol AS-D chloroacetate esterase (Sigma-Aldrich). The number of mast cells and neutrophils was assessed manually in two consecutive cross-sections containing the largest lesions. MOMA-2 and collagen positive areas were quantified by Leica Qwin image analysis software using a Leica DM-RE microscope (Leica Microsystems Inc., Wetzlar, Germany). All morphometric analyses were performed by a blinded operator (T.v.d.H.).
Atherosclerosis study: InflaMab reduces plaque size in an in vivo apoe−/− model of atherosclerosis—see FIG. 38. After 2 weeks of western type diet feeding in female apoE−/− mice, carotid artery plaque formation was induced by perivascular collar placement. […] Carotid arteries then collected for cyrosections. For each carotid, lesion size was quantitated every 80 μm, from the first appearance of the lesion proximal to the collar up to complete disappearance of the lesion from the artery.

B1: InflaMab: 210 kDa bispecific mouse antibody to IL-1R1 and NLRP3; light chain SEQ ID NO: 57, heavy chain with scFv SEQ ID NO: 59 (protein)
light: MVSSAQFLGLLLLCFQGTRCDIVMTQSPATLSVTPGDRVSLSCRASQSISDYLSWYQQRSHESPRLIIKYASQSISGIPSRFSGSGSGSDFTLSINSVEPEDVGVYYCQHGHSFPLTFGSGTKLELKRADAAPTVSIFPPSSEQLTSGGASVVCFLNNFYPKDINVKWKIDGSERQNGVLNSWTDQDSKDSTYSMSSTLTLTKDEYERHNSYTCEATHKTSTSPIVKSFNRNEC
heavy: MGWTLVFLFLLSVTAGVHSQIQLVQSGPELRKPGETVRISCKASGYPFTTAGLQWVQKMSGKGLKWIGWMNTQSEVPKYAEEFKGRIAFSLETAASTAYLQINNLKTEDTATYFCAKSVYFNWRYFDVWGAGTTVTVSSAKTTAPSVYPLAPVCGDTTGSSVTLGCLVKGYFPEPVTLTWNSGSLSSGVHTFPAVLQSDLYTLSSSVTVTSSTWPSQSITCNVAHPASSTKVDKKIEPRGPTIKPCPPCKCPAPNLLGGPSVFIFPPKIKDVLMISLSPIVTCVVVDVSEDDPDVQISWFVNNVEVHTAQTQTHREDYNSTLRVVSALPIQHQDWMSGKEFKCKVNNKDLPAPIERTISKPKGSVRAPQVYVLPPPEEEMTKKQVTLTCMVTDFMPEDIYVEWTNNGKTELNYKNTEPVLDSDGSYFMYSKLRVEKKNWVERNSYSCSVVHEGLHNHHTTKSFSRTPGKGSAGGSGGDSEVQLVESGGGLVKPGGSLKLSCAASGFTFSDYYMYWVRQTPEKRLEWVATISDGGTYTYYPDSVKGRFTISRDNAKNNLYLQMNSLKSEDTAMYYCARGWVSTMVKLLSSFPYWGQGTLVTVSAGGGGSGGGGSGGGGSQAVVTQESALTTSPGETVTLTCRSSTGAVTTSNYANWVQEKPDHLFTGLIGGTNNRAPGVPARFSGSLIGDKAALTITGAQTEDEAIYFCALWYSNYWVFGGGTKLTVLGQPK
IL-1beta secretion in vivo (apoE−/− mice [1]; female apoE−/− mice on Western-type diet, 100 μg or 200 μg i.p. day 10 and 14): specifically inhibit
secretion of TNFalpha in vivo (apoE−/− mice [1]; female apoE−/− mice, 100 μg or 200 μg i.p., specificity): no effect
secretion of TNFalpha ([2]; same cells, specificity): no effect
IL-1beta secretion ([2]; LPS 50 ng/ml, Inflamab 30 min, Alum 50 μg/ml 1 h, ELISA): dose-dependently inhibit
reduction in lesion size (apoE−/− mice [3]; FIG. 38, significant, versus control): −35%
Mouse weight (apoE−/− mice [3]; InflaMab versus control groups): no difference
general white blood cell levels (hematology analysis) (apoE−/− mice [3]; InflaMab versus control groups): no difference
% reduction of plaque size at site of maximal stenosis (apoE−/− mice [3]; InflammAb average versus Control IgG average): 30.6164%
Average plaque size, group Average (apoE−/− mice [3]; group average, 10 mice listed): 36604 μm^2
Lumen size at site of maximal stenosis, Average (apoE−/− mice [3]; group average, 10 mice listed): 11415 μm^2
Media (size) at site of maximal stenosis, Average (apoE−/− mice [3]; group average, 10 mice listed): 40997 μm^2
Plaque size at site of maximal stenosis, Average (apoE−/− mice [3]; group average, 10 mice listed): 58881 μm^2
total vessel area at site of maximal stenosis, Average (apoE−/− mice [3]; group average, 10 mice listed): 111293 μm^2
Lumen size (area of the artery still open for blood flow) compared to Control IgG (apoE−/− mice [3]; in words): almost significantly larger
Total vessel area (plaque+media+lumen) compared to Control IgG (apoE−/− mice [3]; in words): not different
media size (size of the medial smooth muscle layer) compared to Control IgG (apoE−/− mice [3]; in words, Tables 5 and 6): no effect
lesion size, FIG. 38a (apoE−/− mice [3]; versus control, in words): trend towards a reduction
